Assay results reported in patent US20230242592A1, “IDENTIFICATION OF […] PEPTIDES AND USES THEREOF” (priority 2020, published 2023).

Experiments:
[1] = target: RBD-His (Sino Biological) (SARS-CoV-2) (UniProt P0DTC2); experiment: BLI (summary of the working examples)
[2] = target: RBD-His (Sino Biological) (SARS-CoV-2) (UniProt P0DTC2); experiment: BLI steady-state, CR3022 on anti-human IgG Fc tips, RBD-His as analyte

Question: Which Kd [1] does the source give for “neutralizing monoclonal IgG antibody against the SARS-CoV-2 spike glycoprotein (CR3022, antibodies-online)” here?
Answer: 6 nM

Question: What about the Kd [2] of the same substance?
Answer: 8.6 nM
